{
  "source": "paper PMC3795040",
  "biological_target": "HA70 of BoNT/A (full-length, residues M1–N626) (Clostridium botulinum strain 62A (BoNT/A1-producing))",
  "assay": "ITC; […] ([…]) […] (400 µM) […]; 23°C; 50 mM Tris pH 7.6, 100 mM NaCl; […]",
  "data": [
    {"substance": "synthetic nLoop peptide of NTNHA (from UniProt Q45914 116-148)", "values": [
      {"measurement": "Kd", "result": 340, "unit": "nM"},
      {"measurement": "stoichiometry N (nLoop per HA70 trimer)", "result": 1}
    ]}
  ]
}
